The source of these data is US20050054024.

The test system of the data set is T1, 7-nitrobenz-2-oxa-1,3-diazole (NBD)-NH-Ser-Phe-Arg4-Lys-amide 2.
T1 sequence: SFRRRRK

recombinant human protein kinase C γ: the Km (Fluorescence assay) worked out at 30 µM, the Km (Radioactive assay) came to 5 µM, the kcat (Fluorescence assay) came to 3.17 s⁻¹ and the kcat (Radioactive assay) is 3.5 s⁻¹. In addition, the kcat/Km (Fluorescence assay) turned out to be 105000 M⁻¹ s⁻¹ and the kcat/Km (Radioactive assay) worked out at 700000 M⁻¹ s⁻¹.
